# Patent publication US20150023988A1
# “And” between values parts separate entries of the source, which are not always exact repeats. Equal values may be shown once. Read-outs that look alike come from different tables or passages of the source.
# Experiments:
# [1] = target: human voltage-gated sodium channel Nav1.7 (human) (UniProt Q15858); experiment: cell-based or functional assay
# [2] = target: human voltage-gated sodium channel Nav1.4 (human) (UniProt P35499); experiment: cell-based or functional assay
# [3] = target: human voltage-gated sodium channel Nav1.5 (human) (UniProt Q14524); experiment: cell-based or functional assay
# Chain of human voltage-gated sodium channel Nav1.5 (human) (Q14524 whole entry): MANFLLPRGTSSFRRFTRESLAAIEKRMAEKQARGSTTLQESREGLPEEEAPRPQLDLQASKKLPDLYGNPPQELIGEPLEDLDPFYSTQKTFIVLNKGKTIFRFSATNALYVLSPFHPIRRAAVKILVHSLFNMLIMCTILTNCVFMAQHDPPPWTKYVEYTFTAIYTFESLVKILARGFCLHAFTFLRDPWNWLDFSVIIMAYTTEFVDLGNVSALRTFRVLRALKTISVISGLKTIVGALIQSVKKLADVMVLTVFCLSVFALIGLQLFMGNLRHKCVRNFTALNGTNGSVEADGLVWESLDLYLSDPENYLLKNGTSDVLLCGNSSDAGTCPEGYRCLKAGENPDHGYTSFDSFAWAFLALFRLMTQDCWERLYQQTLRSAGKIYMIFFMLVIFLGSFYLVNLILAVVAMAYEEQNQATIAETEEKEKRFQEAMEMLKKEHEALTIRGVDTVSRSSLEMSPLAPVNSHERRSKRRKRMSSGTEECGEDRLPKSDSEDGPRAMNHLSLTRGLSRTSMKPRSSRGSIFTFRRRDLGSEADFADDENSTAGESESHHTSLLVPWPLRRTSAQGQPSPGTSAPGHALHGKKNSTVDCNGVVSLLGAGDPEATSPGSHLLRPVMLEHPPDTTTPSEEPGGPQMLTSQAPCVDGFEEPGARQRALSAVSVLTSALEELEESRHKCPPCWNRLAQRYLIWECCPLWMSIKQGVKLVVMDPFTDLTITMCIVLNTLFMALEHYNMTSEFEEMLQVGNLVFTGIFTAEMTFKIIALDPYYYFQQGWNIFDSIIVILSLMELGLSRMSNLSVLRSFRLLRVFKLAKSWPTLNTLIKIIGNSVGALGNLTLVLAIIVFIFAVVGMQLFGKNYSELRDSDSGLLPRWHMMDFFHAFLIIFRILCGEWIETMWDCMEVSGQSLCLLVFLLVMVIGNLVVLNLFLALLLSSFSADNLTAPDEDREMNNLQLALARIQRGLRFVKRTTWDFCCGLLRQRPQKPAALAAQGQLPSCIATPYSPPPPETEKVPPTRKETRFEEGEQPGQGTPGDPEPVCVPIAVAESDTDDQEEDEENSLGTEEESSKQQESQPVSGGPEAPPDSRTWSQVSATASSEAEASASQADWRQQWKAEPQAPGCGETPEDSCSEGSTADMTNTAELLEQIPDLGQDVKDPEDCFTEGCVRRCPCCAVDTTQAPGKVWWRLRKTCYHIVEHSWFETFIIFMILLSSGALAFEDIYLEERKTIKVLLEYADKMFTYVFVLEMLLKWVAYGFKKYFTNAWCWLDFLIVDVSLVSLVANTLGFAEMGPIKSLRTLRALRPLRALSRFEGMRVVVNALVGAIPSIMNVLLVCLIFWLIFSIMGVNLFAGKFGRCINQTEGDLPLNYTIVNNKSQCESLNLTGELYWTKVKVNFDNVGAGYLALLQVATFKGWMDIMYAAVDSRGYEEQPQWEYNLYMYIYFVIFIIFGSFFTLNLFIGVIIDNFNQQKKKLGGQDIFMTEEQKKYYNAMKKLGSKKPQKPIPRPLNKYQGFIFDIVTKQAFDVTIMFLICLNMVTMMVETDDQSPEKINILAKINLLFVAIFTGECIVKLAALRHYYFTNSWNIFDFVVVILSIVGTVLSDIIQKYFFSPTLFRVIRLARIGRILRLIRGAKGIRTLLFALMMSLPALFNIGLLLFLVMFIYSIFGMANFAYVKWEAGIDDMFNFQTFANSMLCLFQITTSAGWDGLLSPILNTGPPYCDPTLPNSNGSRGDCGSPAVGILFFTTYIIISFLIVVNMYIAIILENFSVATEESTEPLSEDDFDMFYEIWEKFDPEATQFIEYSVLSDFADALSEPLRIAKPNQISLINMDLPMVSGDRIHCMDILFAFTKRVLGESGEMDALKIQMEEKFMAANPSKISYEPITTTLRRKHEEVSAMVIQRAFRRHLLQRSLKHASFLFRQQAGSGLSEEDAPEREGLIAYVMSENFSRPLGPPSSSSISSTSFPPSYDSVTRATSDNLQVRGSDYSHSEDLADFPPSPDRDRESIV
# [4] = target: TTX-sensitive Nav channels in mouse DRG neuron; experiment: cell-based or functional assay
# [5] = target: human voltage-gated sodium channel Nav1.8 (human) (UniProt Q9Y5Y9); experiment: cell-based or functional assay
# [6] = target: TTX-resistant Nav channels in mouse DRG neurons; experiment: cell-based or functional assay
# [7] = target: TTX-sensitive Nav channels in mouse DRG neurons; experiment: cell-based or functional assay
# [8] = target: human voltage-gated sodium channel Nav1.7 (human) (UniProt Q15858); experiment: cell-based or functional assay; remark: listed apart in the source
# [9] = target: human voltage-gated sodium channel Nav1.4 (human) (UniProt P35499); experiment: cell-based or functional assay; remark: listed apart in the source
# [10] = target: human voltage-gated sodium channel Nav1.5 (human) (UniProt Q14524); experiment: cell-based or functional assay; remark: listed apart in the source
# [11] = target: human voltage-gated sodium channel Nav1.3 (human) (UniProt Q9NY46); experiment: cell-based or functional assay
# Chain of human voltage-gated sodium channel Nav1.3 (human) (Q9NY46 whole entry): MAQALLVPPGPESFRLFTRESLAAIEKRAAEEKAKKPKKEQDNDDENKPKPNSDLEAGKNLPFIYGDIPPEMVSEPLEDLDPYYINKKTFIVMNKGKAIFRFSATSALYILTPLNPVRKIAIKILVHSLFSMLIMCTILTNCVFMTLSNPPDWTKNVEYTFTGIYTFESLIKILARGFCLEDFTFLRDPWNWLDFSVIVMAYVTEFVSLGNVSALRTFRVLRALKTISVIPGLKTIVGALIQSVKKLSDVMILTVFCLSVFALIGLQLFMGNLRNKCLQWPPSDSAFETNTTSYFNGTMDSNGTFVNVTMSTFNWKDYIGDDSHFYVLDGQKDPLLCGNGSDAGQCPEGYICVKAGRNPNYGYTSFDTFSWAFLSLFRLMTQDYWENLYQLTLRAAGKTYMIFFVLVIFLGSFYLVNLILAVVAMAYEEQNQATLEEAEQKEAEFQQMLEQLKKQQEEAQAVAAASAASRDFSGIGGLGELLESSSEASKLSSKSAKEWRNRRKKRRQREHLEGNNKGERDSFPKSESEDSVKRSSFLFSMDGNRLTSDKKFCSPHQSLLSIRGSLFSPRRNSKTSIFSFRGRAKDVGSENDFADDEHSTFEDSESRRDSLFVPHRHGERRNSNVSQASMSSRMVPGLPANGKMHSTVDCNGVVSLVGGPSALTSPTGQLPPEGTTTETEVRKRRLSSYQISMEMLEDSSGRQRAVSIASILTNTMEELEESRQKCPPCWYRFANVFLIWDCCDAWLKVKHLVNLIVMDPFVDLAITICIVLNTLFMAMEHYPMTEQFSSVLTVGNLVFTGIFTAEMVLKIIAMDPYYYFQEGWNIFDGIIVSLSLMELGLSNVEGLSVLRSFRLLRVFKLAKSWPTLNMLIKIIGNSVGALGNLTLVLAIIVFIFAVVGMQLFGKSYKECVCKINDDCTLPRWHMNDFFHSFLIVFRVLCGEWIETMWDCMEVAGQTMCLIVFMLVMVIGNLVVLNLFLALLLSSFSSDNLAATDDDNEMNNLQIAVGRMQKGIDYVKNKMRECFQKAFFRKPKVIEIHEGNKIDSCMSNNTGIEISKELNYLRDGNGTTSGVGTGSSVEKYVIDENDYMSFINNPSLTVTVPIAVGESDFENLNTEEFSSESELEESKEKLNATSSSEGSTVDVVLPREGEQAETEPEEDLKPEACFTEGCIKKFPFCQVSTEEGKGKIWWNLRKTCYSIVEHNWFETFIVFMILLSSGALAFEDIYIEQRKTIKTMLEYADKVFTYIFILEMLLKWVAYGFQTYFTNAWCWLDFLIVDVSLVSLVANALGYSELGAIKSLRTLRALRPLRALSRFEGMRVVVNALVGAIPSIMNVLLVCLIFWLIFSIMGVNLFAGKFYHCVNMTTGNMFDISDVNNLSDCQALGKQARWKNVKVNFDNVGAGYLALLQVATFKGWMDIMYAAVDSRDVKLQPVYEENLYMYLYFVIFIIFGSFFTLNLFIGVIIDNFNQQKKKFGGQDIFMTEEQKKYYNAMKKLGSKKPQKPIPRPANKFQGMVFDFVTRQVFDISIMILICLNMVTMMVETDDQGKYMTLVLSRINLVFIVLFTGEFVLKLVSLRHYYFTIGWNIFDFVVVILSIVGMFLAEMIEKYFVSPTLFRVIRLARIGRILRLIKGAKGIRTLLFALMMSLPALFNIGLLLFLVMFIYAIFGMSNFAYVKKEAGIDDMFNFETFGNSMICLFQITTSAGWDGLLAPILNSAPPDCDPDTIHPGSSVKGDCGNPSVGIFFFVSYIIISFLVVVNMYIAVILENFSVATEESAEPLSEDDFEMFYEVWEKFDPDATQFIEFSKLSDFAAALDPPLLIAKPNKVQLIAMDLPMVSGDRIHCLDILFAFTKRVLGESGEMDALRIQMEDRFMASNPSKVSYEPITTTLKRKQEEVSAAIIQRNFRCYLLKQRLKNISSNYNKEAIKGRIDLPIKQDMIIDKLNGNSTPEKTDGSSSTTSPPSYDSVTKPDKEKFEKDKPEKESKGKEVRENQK
# [12] = target: human voltage-gated sodium channel Nav1.3 (human) (UniProt Q9NY46); experiment: cell-based or functional assay; remark: listed apart in the source
# [13] = target: human voltage-gated sodium channel Nav1.8 (human), Q9Y5Y9; details: chains peptide; modification not given
molecule,measurement,setting,value
Atz(NPEG10)-[Nle6]JzTx-V(1-29) (peptide),PX hNav1.7 Tonic IC50,[1],6 nM
same,Nav1.4/Nav1.7,[2],1 fold
same,PX hNav1.4 Tonic IC50,[2],8 nM
same,Nav1.5/Nav1.7,[3],629 fold
same,PX hNav1.5 Tonic IC50,[3],3.77 µM
Atz(PEG11-benzylthioacetamide)-[Nle6]JzTx-V(1-29) (peptide),PX hNav1.7 Tonic IC50,[1],1.4 nM
same,Nav1.4/Nav1.7,[2],9 fold
same,PX hNav1.4 Tonic IC50,[2],13 nM
same,Nav1.5/Nav1.7,[3],1420 fold
same,PX hNav1.5 Tonic IC50,[3],1.98 µM
Bis-{Atz(PEG23*)-[Nle6]JzTx-V(1-29)}-5-((2-(benzylthio)acetamido)methyl)isophthalamide (peptide),Nav1.4/Nav1.7,[2],5 fold and 3 fold
same,PX hNav1.5 Tonic IC50,[3],0.72 µM and 1.18 µM
"CyA-[Nle6,Lys(Pra)14,Glu28]JzTx-V(1-29) (peptide)","fold loss of potency against JzTx-V on TTX-sensitive current, mouse DRG neurons",[4],3 fold
GpTx-1 (peptide),Nav1.7 whole cell patch clamp [WCPC] IC50,[1],3 nM
JzTx-45 (peptide),PX hNav1.7 Tonic IC50,[1],122 nM
same,PX hNav1.4 Tonic IC50,[2],321 nM
same,PX hNav1.5 Tonic IC50,[3],7.46 µM
JzTx-V(1-29) (peptide),"1.x/1.7, fully non-inactivated",[5],5720 fold
same,"1.x/1.7, partially inactivated",[5],3280 fold
same,"Mean IC50, fully non-inactivated (WCPC)",[5],810 nM
same,"Mean IC50, partially inactivated (WCPC)",[5],530 nM
same,"Mean IC50, fully non-inactivated (WCPC)",[6],> 1000 nM
same,"Mean IC50, partially inactivated (WCPC)",[6],> 1000 nM
same,IC50 (IonWorks Quattro),[1],0.02 µM
same,"Mean IC50, fully non-inactivated (WCPC)",[1],0.141 nM
same,"Mean IC50, partially inactivated (WCPC)",[1],0.162 nM
same,"1.x/1.7, fully non-inactivated",[7],530 fold
same,"1.x/1.7, partially inactivated",[7],111 fold
same,"Mean IC50, fully non-inactivated (WCPC)",[7],75 nM
same,"Mean IC50, partially inactivated (WCPC)",[7],18 nM
same,PX hNav1.4 Tonic IC50,[2],3 nM and 2 nM
same,"average IC50 against hNav1.4, PX assay format",[2],2 nM
same,"1.x/1.7, fully non-inactivated",[3],6230 fold
same,"1.x/1.7, partially inactivated",[3],2640 fold
same,IC50 (IonWorks Quattro),[3],7.2 µM
same,"Mean IC50, fully non-inactivated (WCPC)",[3],882 nM
same,"Mean IC50, partially inactivated (WCPC)",[3],426 nM
same,PX hNav1.5 Tonic IC50,[3],2.21 µM and 3.25 µM and 1.6 µM
same,IC50 (IonWorks Quattro),[8],0.04 µM
same,IC50 (IonWorks Quattro),[9],0.2 µM
same,IC50 (IonWorks Quattro),[10],> 7 µM
Pra-[Nle6]JzTx-V(1-29) (peptide),"fold improvement in hNav1.7 potency over wild type JzTx-V, WCPC",[1],190 fold
same,"fold potency against hNav1.7 over wild type JzTx-V(1-29), WCPC",[1],200 fold
same,"fold potency over JzTx-V on TTX-sensitive current, mouse DRG neurons",[4],3 fold
[1-Nal7]JzTx-V(1-29) (peptide),PX hNav1.7 Tonic IC50,[1],0.4 nM
same,PX hNav1.4 Tonic IC50,[2],0.9 nM
same,PX hNav1.5 Tonic IC50,[3],1.42 µM
[Abu20]JzTx-V(1-29) (peptide),IC50 (IonWorks Quattro),[1],0.05 µM
same,IC50 (IonWorks Quattro),[2],0.9 µM
same,Nav1.4/Nav1.7 (ratio of IC50s),[2],19
same,IC50 (IonWorks Quattro),[11],0.97 µM
same,IC50 (IonWorks Quattro),[3],10.6 µM
[Cit20]JzTx-V(1-29) (peptide),IC50 (IonWorks Quattro),[1],0.04 µM
same,IC50 (IonWorks Quattro),[2],0.5 µM
same,Nav1.4/Nav1.7 (ratio of IC50s),[2],15
same,IC50 (IonWorks Quattro),[11],0.35 µM
same,IC50 (IonWorks Quattro),[3],6.8 µM
[Cpa20]JzTx-V(1-29) (peptide),IC50 (IonWorks Quattro),[1],0.21 µM
same,IC50 (IonWorks Quattro),[2],> 5 µM
same,Nav1.4/Nav1.7 (ratio of IC50s),[2],24
same,IC50 (IonWorks Quattro),[11],> 5 µM
same,IC50 (IonWorks Quattro),[3],14.2 µM
[Nle6]JzTx-V(1-29) (peptide),PX hNav1.7 Tonic IC50,[1],0.586 nM
same,IC50 (IonWorks Quattro),[8],> 5 µM
same,IC50 (IonWorks Quattro),[9],> 5 µM
same,IC50 (IonWorks Quattro),[12],> 5 µM
same,IC50 (IonWorks Quattro),[10],> 5 µM
[Nva20]JzTx-V(1-29) (peptide),IC50 (IonWorks Quattro),[1],0.17 µM
same,IC50 (IonWorks Quattro),[2],3.1 µM
same,Nav1.4/Nav1.7 (ratio of IC50s),[2],19
same,IC50 (IonWorks Quattro),[11],> 5 µM
same,IC50 (IonWorks Quattro),[3],10.4 µM
"[Phe6,Atz(2 kDa EtO-PEG*-{[Phe6,Atz13*]GpTx-1(1-34)})13]GpTx-1(1-34) (peptide)",Nav1.7 WCPC IC50,[1],580 pM
YCQKWMWTCDSKRACCEGLRCKLWCRKII [JzTx-V(1-29)],IC50,[13],630 nM and 430 nM
